The text below walks through data of patent US20240034786A1 (WUXI BIOLOGICS IRELAND, published 2024).

Test [1] addresses T1, Human P-cadherin on cells (human, UniProt P22223 108-829).
T1 construct: whole, on cells; Endogenous P-cadherin on tumour cell lines; also called hPro1
Put plainly: FACS on HCT-116 cells. How it is done:
Binding of the test antibodies to P-cadherin expressed on cells was determined by flow cytometry analysis. […] 1×10⁵ cells/well (100 μL) were added to each well of a 96-well U-plate (Corning, #3799) and centrifuged at 1500 rpm (Eppendorf, #5810R) for 5 minutes before removing the supernatant. Antibodies serially diluted in 1% BSA/1×PBS (Ca+/Mg+) were added at 100 μL/well to the pelleted cells and incubated at 4° C. for 1 hour. Anon-related hIgG1 antibody was used as an isotype control. Cells were washed two times with 180 μL/well of 1% BSA/1×PBS (Ca+/Mg+) by centrifugation at 1500 rpm for 5 minutes at 4° C. Pelleted cells were resuspended in 100 μL/well Alexa647 conjugated Goat anti-human IgG Fc (Jackson, #109-605-098) 1:500 diluted in 1% BSA/1×PBS (Ca+/Mg+) for 30 minutes at 4° C. in the dark. Cells were then washed two times as described above. After the final wash, cells were resuspended in 100 μL 1% BSA/1×PBS (Ca+/Mg+) and fluorescence values were measured with a FACS Canto II cytometer (BD Biosciences). The amount of cell surface bound anti-P-cadherin antibody was assessed by measuring the mean fluorescence (MFI). The FACS raw data were analyzed by FlowJo software, wells containing no antibody or secondary antibody only were used to establish background fluorescence. Binding EC50 values were obtained by the four-parameter non-linear regression analysis using GraphPad Prism6 software.
Binding of the antibodies to human P-cadherin expressed on cells was determined by flow cytometry analysis.

Test [2] has as its target T1, Human P-cadherin on cells. Briefly: cell-based or functional assay.
The target of test [3] is T1, Human P-cadherin on cells. Put plainly: cell-based or functional assay. This is another data set of the same source.
Test [4] has as its target T1, Human P-cadherin on cells. Put plainly: cell-based or functional assay. This is another data set of the same source.
Another test deals with T2, W319-hPro1.D1.ECD.hFc (human, UniProt P22223 108-236).
T2 construct: range 108-236; also called Human P-cadherin ECD domain 1; not shown: human Fc by the code hFc
T2 sequence (P22223 108-236): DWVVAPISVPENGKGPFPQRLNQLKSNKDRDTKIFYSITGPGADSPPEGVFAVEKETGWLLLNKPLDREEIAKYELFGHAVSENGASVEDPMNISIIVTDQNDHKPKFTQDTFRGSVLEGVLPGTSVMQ
Briefly: direct ELISA on coated antigen. How it is done: (§1) The binding of the antibodies to W319-hPro1.D1.ECD.hFc, W319-hPro1.D12.ECD.hFc (WT), W319-hPro1.D123.ECD.hFc (WT), W319-hPro1.D1234.ECD.hFc (WT) (2.5) and W319-hPro1.ECD.hFc (WT)-P3 were tested by a direct protein binding ELISA. 96-well high protein binding ELISA plates (Nunc MaxiSorp, ThermoFisher, Cat #: 442404) were coated overnight at 4° C. with 1 μg/mL antigens in Carbonate-bicarbonate buffer (20 mM Na2CO3, 180 mM NaHCO3, pH=9.2). All wells were washed three time with 300 μL per well of PBS/0.5‰ Tween-20 (v/v) and all the following wash steps in the assay were performed the same. The wells were then blocked for one hour with 2% BSA (Bovogen, Cat #: BSAS)/1×PBS (Ca+/Mg+) (Gibco, #14040-117) and washed three times. For the primary antibody binding, the testing antibodies including the BMKs and our antibodies serially diluted in 2% BSA/1×PBS (Ca+/Mg+) were added to the relevant wells and incubated at room temperature for two hours. Plates were washed three times prior to the addition of 100 μL of secondary antibody Goat anti-Human-IgG-F(ab′)2-HRP (Jackson, Cat #: 109-035-097) 5000-fold diluted in 2% BSA/1×PBS (Ca+/Mg+). Plates were incubated at room temperature for one hour, followed by six washes as describe above.
(§2) For the binding detection, 100 μL Tetramethylbenzidine (TMB) Substrate solution (Invitrogen, Cat #: 002023) was added to all wells for 10 minutes before stopping the reaction with 100 μL 2M HCl. The extent of the testing Abs binding to W319-hPro1.D1.ECD.hFc, W319-hPro1.D12.ECD.hFc (WT), W319-hPro1.D123.ECD.hFc (WT), W319-hPro1.D1234.ECD.hFc (WT) and W319-hPro1.ECD.hFc (WT)-P3 were determined by measuring the OD450 absorbance using the SpectraMax® M5e microplate reader. Wherever appropriate, binding EC50 values were obtained by the four-parameter non-linear regression analysis using GraphPad Prism 5 software.
(§3) Its binding epitope is different from BMKs.
In general terms: ELISA stands for enzyme-linked immunosorbent assay.

Test [5] deals with T3, W319-hPro1.D12.ECD.hFc (WT) (human, UniProt P22223 108-348).
T3 construct: range 108-348; also called Human P-cadherin ECD domain 1&2; domain 1-2; not shown: human Fc by the code hFc
T3 sequence (P22223 108-348): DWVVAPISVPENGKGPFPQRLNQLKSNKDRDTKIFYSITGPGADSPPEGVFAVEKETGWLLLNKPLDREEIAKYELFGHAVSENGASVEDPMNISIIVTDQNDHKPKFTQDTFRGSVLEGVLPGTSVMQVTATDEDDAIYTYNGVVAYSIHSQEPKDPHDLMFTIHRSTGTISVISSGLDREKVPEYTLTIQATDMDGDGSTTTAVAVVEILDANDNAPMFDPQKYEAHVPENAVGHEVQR
Briefly: direct ELISA on coated antigen. How it is done: as §1, §2, §3

The target in test [6] is T4, W319-hPro1.D123.ECD.hFc (WT) (human, UniProt P22223 108-461).
T4 construct: range 108-461; also called Human P-cadherin ECD domain 1&2&3; domain 1-3; not shown: human Fc by the code hFc
T4 sequence (P22223 108-461): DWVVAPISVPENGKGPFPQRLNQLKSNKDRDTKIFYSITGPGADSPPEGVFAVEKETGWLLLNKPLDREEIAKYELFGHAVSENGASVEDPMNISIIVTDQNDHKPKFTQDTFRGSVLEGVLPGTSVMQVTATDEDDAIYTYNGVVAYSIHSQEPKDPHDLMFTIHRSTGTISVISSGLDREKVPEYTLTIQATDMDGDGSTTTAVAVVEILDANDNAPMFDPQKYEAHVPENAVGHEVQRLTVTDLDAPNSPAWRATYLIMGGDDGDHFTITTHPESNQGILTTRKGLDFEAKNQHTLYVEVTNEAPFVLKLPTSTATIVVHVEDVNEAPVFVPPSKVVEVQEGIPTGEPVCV
Put plainly: direct ELISA on coated antigen. The method, then: as §1, §2, §3

Test [7] concerns the target T5, W319-hPro1.D1234.ECD.hFc (WT) (human, UniProt P22223 108-550).
T5 construct: range 108-550; also called Human P-cadherin ECD domain 1&2&3&4; domain 1-4; not shown: human Fc by the code hFc
Put plainly: direct ELISA on coated antigen. How it is done:
as §1, §2, §3

The target in test [8] is T6, W319-hPro1.ECD.hFc (WT)-P3 (human, UniProt P22223 108-654).
T6 construct: range 108-654; also called Human P-cadherin ECD; not shown: human Fc by the code hFc
T6 sequence (P22223 108-654): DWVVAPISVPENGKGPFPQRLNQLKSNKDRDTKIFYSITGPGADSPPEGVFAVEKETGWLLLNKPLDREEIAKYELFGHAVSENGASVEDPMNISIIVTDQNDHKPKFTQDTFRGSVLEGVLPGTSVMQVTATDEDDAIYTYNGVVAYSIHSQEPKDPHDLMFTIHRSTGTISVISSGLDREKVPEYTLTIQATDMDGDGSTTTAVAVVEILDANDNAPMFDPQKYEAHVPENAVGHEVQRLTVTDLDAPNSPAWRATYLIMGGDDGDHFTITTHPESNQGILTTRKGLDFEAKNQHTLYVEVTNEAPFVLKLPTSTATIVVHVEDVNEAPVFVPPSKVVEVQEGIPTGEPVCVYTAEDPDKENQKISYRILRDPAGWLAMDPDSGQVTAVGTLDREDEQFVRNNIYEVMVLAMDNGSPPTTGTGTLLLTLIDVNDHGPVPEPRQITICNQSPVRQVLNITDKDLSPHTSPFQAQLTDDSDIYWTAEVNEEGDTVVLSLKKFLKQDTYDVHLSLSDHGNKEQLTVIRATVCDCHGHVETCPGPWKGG
Briefly: direct ELISA on coated antigen. How it is done: as §1, §2, §3

The target of test [9] is T1, Human P-cadherin on cells. Briefly: FACS affinity test on DU-145 cells. How it is done: Antibodies to be tested were serially diluted in 1×PBS/1% BSA and incubated with cells at 4° C. for 1 h. The plates were centrifuged and the supernatant was discarded. The cells were then incubated with Alexa647 conjugated goat anti-human IgG Fc (Jackson) at 4° C. in the dark for 30 min. After washing the cells were re-suspended in 100 μL 1×PBS/1% BSA, and fluorescence intensity was measured by flow cytometry (BD Canto II) and analyzed by FlowJo. The fluorescence intensity was converted to bound molecules/cell based on the quantitative beads standard curve (Quantum™ MESF Kits, Bangs Laboratories). KD was calculated by Graphpad Prism5.

T1 sequence (P22223 108-829): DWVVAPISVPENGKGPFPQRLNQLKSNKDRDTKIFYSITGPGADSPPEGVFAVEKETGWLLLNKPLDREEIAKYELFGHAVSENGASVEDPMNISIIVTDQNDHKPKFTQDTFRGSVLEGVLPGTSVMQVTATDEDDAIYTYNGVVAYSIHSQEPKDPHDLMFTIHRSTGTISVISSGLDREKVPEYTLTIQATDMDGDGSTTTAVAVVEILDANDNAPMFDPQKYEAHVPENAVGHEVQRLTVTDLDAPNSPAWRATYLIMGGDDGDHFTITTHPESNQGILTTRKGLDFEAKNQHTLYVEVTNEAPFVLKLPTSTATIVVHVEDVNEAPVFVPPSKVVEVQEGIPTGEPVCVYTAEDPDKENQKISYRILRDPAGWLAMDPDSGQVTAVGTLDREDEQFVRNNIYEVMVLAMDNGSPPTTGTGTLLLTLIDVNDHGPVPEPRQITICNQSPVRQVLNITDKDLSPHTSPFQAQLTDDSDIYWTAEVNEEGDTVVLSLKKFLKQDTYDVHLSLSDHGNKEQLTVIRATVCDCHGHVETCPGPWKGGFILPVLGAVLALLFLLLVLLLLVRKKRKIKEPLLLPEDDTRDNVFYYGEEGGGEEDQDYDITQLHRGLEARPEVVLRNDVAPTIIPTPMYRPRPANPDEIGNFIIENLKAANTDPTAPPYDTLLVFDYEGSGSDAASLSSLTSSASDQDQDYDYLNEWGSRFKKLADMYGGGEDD
T5 sequence (P22223 108-550): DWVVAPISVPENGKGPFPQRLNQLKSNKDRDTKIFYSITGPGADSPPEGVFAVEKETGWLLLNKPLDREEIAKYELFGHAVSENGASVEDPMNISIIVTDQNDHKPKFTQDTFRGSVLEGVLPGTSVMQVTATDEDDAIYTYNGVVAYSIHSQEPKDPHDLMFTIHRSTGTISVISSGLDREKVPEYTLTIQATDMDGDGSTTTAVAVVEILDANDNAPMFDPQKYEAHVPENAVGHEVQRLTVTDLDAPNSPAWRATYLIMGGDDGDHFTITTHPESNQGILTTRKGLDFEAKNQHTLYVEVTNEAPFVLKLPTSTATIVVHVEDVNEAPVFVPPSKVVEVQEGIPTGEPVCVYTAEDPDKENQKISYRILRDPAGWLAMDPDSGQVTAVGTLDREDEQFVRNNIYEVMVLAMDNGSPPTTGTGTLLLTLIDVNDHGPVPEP

B1: W3195-1.53.1-p1-uIgG1L (antibody)
heavy: not shown
light: SYELTQPPSVSVSPGQTAQITCSGDKLGDKFASWYQQKSGQSPVVVIYQDNKRPSGFPERFSGSNSGNTATLTISGTQAMDEADYYCQAWDSSIVVFGGGTKLTVLGQPKAAPSVTLFPPSSEELQANKATLVCLISDFYPGAVTVAWKADSSPVKAGVETTTPSKQSNNKYAASSYLSLTPEQWKSHRSYSCQVTHEGSTVEKTVAPTECS
notes: also called W3195-p1 antibody
As usually defined, the EC50 is the concentration giving half of the maximal effect. What is called Kd is the constant that tells how readily two partners part at equilibrium. A high value points to a looser complex. For B1, the EC50 in test [1] stood at 150 pM; in [6], 80 pM; in test [7] it was 87 pM; in test [8] it was 140 pM. The “Max MFI” value in test [1] was 4080. Also, in test [2], the “internalization, HCS assay on HCC-1954, EC50” value amounted to 29 pM. Also, the “ADCC reporter gene assay, EC50” value in test [3] came to 52 pM. Further, the “ADCC reporter gene assay, Max Fold Change” value in test [3] turned out to be 145 fold. Also, the “cell aggregation assay on DU-145, EC50” value in [4] came to 390 pM. For the same molecule, the “cell aggregation assay on DU-145, Max Fold change” value in [4] was 1.75 fold. The “Max OD450” value with W319-hPro1.D1.ECD.hFc was 0.07; in test [5] it was 0.08; in test [6], 2.83; in test [7], 2.88; in test [8], 2.88. The molecule also displayed a Kd in test [9] of 34 pM.
